The experiment concerns the target T1, human Aβ peptide (1-40) biotinylated at the C terminus (human, UniProt P05067 672-711, biotinylated at the C terminus).
T1 construct: domain: beta-amyloid peptide (1-40); the peptide starts at the BACE-1 cleavage site (DAEFRHD...); also called beta-amyloid 1-40 peptide (biotinylated at the C-terminus); streptavidin-captured beta-amyloid (1-40)
Kind of experiment: Biacore SPR, similar to Method A(i); streptavidin-captured beta-amyloid (1-40), Fab in solution. In general terms: Surface plasmon resonance follows binding to a sensor surface in real time, without labels.

T1 sequence (P05067 672-711 limits assumed): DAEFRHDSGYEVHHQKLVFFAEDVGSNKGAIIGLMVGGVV

B1: Fab fragments of H2L1, obtained by papain digestion (Fab, V domains shown)
VH: EVQLVESGGGLVQPGGSLRLSCAVSGFTFSDNGMAWVRQAPGKGLEWVSFISNLAYSIDYADTVTGRFTISRDNAKNSLYLQMNSLRAEDTAVYYCVSGTWFAYWGQGTLVTVSS
VL: DIVMTQSPLSLPVTPGEPASISCRVSQSLLHSNGYTYLHWYLQKPGQSPQLLIYKVSNRFSGVPDRFSGSGSGTDFTLKISRVEAEDVGVYYCSQTRHVPYTFGGGTKVEIKR
notes: also called H2L1 Fab
What is called Kd is the constant that tells how readily two partners part at equilibrium. The low end stands for tighter binding, the high end for weaker binding. Turning to B1, the Kd was around 2.4 nM.

For the origin of these results see US20140050719A1 (GlaxoSmithKline, published 2014).
